Results from patent WO2021065846A1 (dated 2021).

B1: anti-1C10 idiotype antibody #87 (IgG) (antibody, V domains shown)
VH: QVQLVETGGGLVRPGNSLKLSCVTSGFTFSTYRMHWLRQPPGKRLEWIAVITVKSDGYGANYAQSLKDRFTISRDDSKSSVFLQMNRLREEDTATYYCSRGPDFYGSTYWYFDVWGAGTT
VL: DIVMTQSPSSLDVSVGEKVSMSCKSSQSLLYRSNQKNYLAWYQQKPGQSPRLLIYWASTRESGVPDRFTGSGSGTDFTLTISSVKAEDLAVYYCQQYYSYSTFGAGTKVELK
notes: Mouse variable regions cloned into human IgG expression vectors (pIgGH, pKVA2); Biotinylated where used as detection antibody; also called clone #87; IgG#87
B2: anti-1C10 idiotype antibody #102 (IgG) (antibody, V domains shown)
VH: EVKLLESGGGLVQPGISLKLSCAASGFDFTRDWMSWVRQAPGKGLEWIGEINPDSSAINYTPSLRDKFIISRDNAKNTLYLQMSKVRSEDTALYYCARRGYYGYYLDYWGQGTTLTVSS
VL: DIVMTQSPSSLAVSVGEKVTMSCKSSQSLFFRSNQKNYLAWYQQKPGQSPKLLIYWASTGESGVPDRFTGSGSGTDFTLTISSVKAEDLAVYYCQQYYSYPTFGGGTKLEIK
notes: Mouse variable regions cloned into human IgG expression vectors (pIgGH, pKVA2)
B3: Fab of anti-1C10 idiotype antibody #92 (Fab, V domains shown)
VH: QVQLQQSGAELAKPGASVKMSCKASGYTFTNYWMHWVKQRPGQGLEWIGFINPNTDYTEYNQKFTDKATLTADKSSNTAYMQLSSLTSEDSALYYCAREDTWFAYWGQGTLVTVSA
VL: DIQMTQSPASLSASVGETVTITCRASENIYSYLAWYQQKQGKSPQLLVYNAKALAEGVPSRFSGSGSGTQFSLKINSLQPEDFGSYYCQHHYRTPYAFGGGTKLEIK
notes: VH cloned into a Fab heavy chain expression vector, co-expressed with the light chain vector, purified on His60 Ni resin; also called Fab#92; #92Fab
B4: anti-1C10 idiotype antibody #92 (IgG) (antibody, V domains shown)
VH: QVQLQQSGAELAKPGASVKMSCKASGYTFTNYWMHWVKQRPGQGLEWIGFINPNTDYTEYNQKFTDKATLTADKSSNTAYMQLSSLTSEDSALYYCAREDTWFAYWGQGTLVTVSA
VL: DIQMTQSPASLSASVGETVTITCRASENIYSYLAWYQQKQGKSPQLLVYNAKALAEGVPSRFSGSGSGTQFSLKINSLQPEDFGSYYCQHHYRTPYAFGGGTKLEIK
notes: Mouse variable regions cloned into human IgG expression vectors (pIgGH, pKVA2); also called clone #92; IgG#92

Columns and labels:
[1] = target: T1, anti-HIV-1 V3 antibody 1C10 (0.5γ); assay: SPR, Biacore T200, biotinylated 1C10 on SA chip, anti-idiotype antibody as analyte
T1 construct: Used as whole bivalent IgG; also called anti-V3 antibody 1C10; 1C10-biotin
T1 sequence (VH, as listed by the source, chain 1 of 2): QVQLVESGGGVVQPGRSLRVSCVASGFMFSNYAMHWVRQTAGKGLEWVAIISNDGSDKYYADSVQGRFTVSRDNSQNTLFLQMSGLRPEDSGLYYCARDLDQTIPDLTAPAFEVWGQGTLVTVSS
T1 sequence (VL, as listed by the source, chain 2 of 2): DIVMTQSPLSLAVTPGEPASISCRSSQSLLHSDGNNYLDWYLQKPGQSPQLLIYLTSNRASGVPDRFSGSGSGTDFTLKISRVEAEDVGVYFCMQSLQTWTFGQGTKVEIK

[2] = target: T1, anti-HIV-1 V3 antibody 1C10 (0.5γ); assay: inhibition ELISA: biotinylated 1C10 on NNT20 V3 peptide
[3] = target: T1, anti-HIV-1 V3 antibody 1C10 (0.5γ); assay: sandwich ELISA: Fab #92 coated as capture, 1C10, biotinylated IgG #87 as detection

Binder	binding result [2]	also measured
B1		Kd [1]: 0.0343 nM
B2	binds	
B3		binding result [3]: binds
B4	binds	
